Our source for the % Specific positive cells, Relative MFI and % Specific positive dendritic cells values is patent US20050031628A1.

The target of experiment [1] is antigen binding receptors on maturing human monocyte-derived dendritic cells. Put plainly: flow cytometry, maturing dendritic cells loaded with 10 µg/ml HBV S1/S2.
For experiment [2] the target is unchanged. Put plainly: flow cytometry, 90 µg/mL, 1 h at 4 C, dendritic cells of day 1 of culture, F(ab')2 goat anti-mouse Alexa-488.
Experiment [3] has the same target. The experiment can be described thus: flow cytometry, 90 µg/mL, 1 h at 4 C, dendritic cells of day 2 of culture, F(ab')2 goat anti-mouse Alexa-488. On the technique in general: A flow cytometer gives signals particle by particle.
Experiment [4] shares this target. Put plainly: flow cytometry, 90 µg/mL, 1 h at 4 C, dendritic cells of day 3 of culture, F(ab')2 goat anti-mouse Alexa-488.
For experiment [5] the target is unchanged. The experiment can be described thus: flow cytometry, 90 µg/mL, 1 h at 4 C, dendritic cells of day 4 of culture, F(ab')2 goat anti-mouse Alexa-488.

In experiment [1], “HBV S1/S2 expressed in High Five insect cells (baculovirus)” returned a % Specific positive cells of 69.9% and a Relative MFI of 40.3.

In the case of murine IgG2a (G155-178) (antibody), the % Specific positive dendritic cells is 28% in experiment [2], 17.4% in experiment [3], 14.3% in experiment [4] and 13.5% in experiment [5].

Consider HBV S1/S2 expressed in E. coli, for which, in experiment [1], the % Specific positive cells came to 12.2% and the Relative MFI was found to be 3.9.
